Assay results from patent publication US8735341.

Test system: TAT-mMDH-eGFP fusion protein

Substance: mitochondrial processing peptidases in the matrix contents of rat liver mitochondria
- cleavage of the mMDH signal sequence after incubation with mitochondrial matrix contents (gel): The matrix signal peptidase progressively cleaved the mMDH signal sequence at two sites yielding two cleavage products of an estimated molecular mass of 32 kDa and 28.9 kDa
